Measurements: a protein production outcome set (Wang et al. 2014)
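Further: failed if final PepcDB status was selected cloned or expressed and not failed if soluble or beyond.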

Experiment: label from the status in PepcDB records
With “MSLADTRKIDSVLLIDDDDIVNFLNTTIIRMTHRVEEIQSVTSGNAAINKLNELYAAGRWPSIICIDINMPGINGWELIDLFKQHFQPMKNKSIVCLLSSSLDPRDQAKAEASDWVDYYVSKPLTANALNNLYNKVLNEGHHHHHH” the protein production was “not failed”.
For “MSLAEGKWWRIMLVDTQLPALAASISALSQEGFDIIQCGNAIEAVPVAVKTHPHLIITEANMPKISGMDLFNSLKKNPQTASIPVIALSGRATAKEEAQLLDMGFIDFIAKPVNAIRLSARIKRVLKLLYEDLSAPPAREGHHHHHH”, the protein production was “not failed”.
With “MSLANLSELPNIGKVLEQDLIKAGIKTPVELKDVGSKEAFLRIWENDSSVCMSELYALEGAVQGIRWHGLDEAKKIELKKFHQSLEGHHHHHH” the protein production was “not failed”.
For “MSLAPWRGAIAHALHRNRSLVYARYLQLATVQPNGRPANRTLVFRGFLEDTNQLRFITDTRSAKADQIQQQPWAEICWYFPNTREQFRMAGDLTLISSDDSHQDLQPARIAMWQELSDAARLQFGWPYPGKPRIKESGAFEPSPPDPIEPVPNFCLLLLDPVQVDHLELRGEPQNRWLYHRNDQQEWSSEAINP”, the protein production was “not failed”.
In the case of “MSLDALTTLPIKKHTALLNRFPETRFVTQLAKKRASWIVFGHYLTPAQFEDMDFFTNRFNAILDMWKVGRYEVALMDGELTSEHETILKALELDYARIQDVPDLTKPGLIVLDMDSTAIQIECIDEIAKLAGVGEEVAEVTERAMQGELDFEQSLRLRVSKLKDAPEQILSQVRETLPLMPELPELVATLHAFGWKVAIASGGFTYFSDYLKEQLSLDYAQSNTLEIVSGKLTGQVLGEVVSAQTKADILLTLAQQYDVEIHNTVAVGDGANDLVMMAAAGLGVAYHAKPKVEAKAQTAVRFAGLGGVVCILSAALVAQQKLSWKSKEGHHHHHH”, the protein production is reported as “not failed”.
For “MSLDARFDIAHLARAELFSPKPQETLDFFTKFLGMYVTHREGQSVYLRGYEDPYPWSLKITEAPEAGMGHAAMRTSSPEALERRAKSLTDGNVDGTWSEDQFGYGKTFEYQSPDGHNLQLLWEAEKYVAPPELRSKILTRPSKKPLQGIPVKRIDHLNLMSSDVTAVKDSFERHLGFRTTERVVDGNVEIGAWMSSNLLGHEVACMRDMTGGHGKLHHLAFFYGTGQHNIDAVEMFRDYDIQIEAGPDKHGITQSQFLYVFEPGGNRIELFGEAGYLHLDPDAETKTWQMSDIDTGLAVGGAKLPWESYFTYGTPSPLSLDQHIEKYAHFGEGHHHHHH”, the protein production was “not failed”.
With “MSLDFHGVFPYLVSPVDAEGRVRADVMGRLCDDLIQAGVHGLTPLGSTGEFAYLGTAQREAVVRATIEAAQRRVPVVAGVASTSVADAVAQAKLYEKLGADGILAILEAYFPLKDAQIESYFRAIADAVEIPVVIYTNPQFQRSDLTLDVIARLAEHPRIRYIKDASTNTGRLLSIINRCGDALQVFSASAHIPAAVMLIGGVGWMAGPACIAPRQSVALYELCKAQRWDEALMLQRKLWRVNEAFAKFNLAACIKAGLALQGYDVGDPIPPQAALTAEERKAVEKVLAEIAEGHHHHHH” the protein production was “not failed”.
In the case of “MSLDKAIKEVRGNGKLKVAVFSDPDCPFCKRLEHEFEKMTDVTVYSFMMPIAGLHPDAARKAQILWCQPDRAKAWTDWMRKGKFPVGGSICDNPVAETTSLGEQFGFNGTPTLVFPNGRTQSGYSPMPQLEEIIRKNQQEGHHHHHH”, the protein production is reported as “not failed”.
For “MSLDKVLEDEVVEDTGESQVFNLLNPEFVDFDTCLDPITNELPTSETTKPAGELRREKTPAKKGNSNSSSVDHRFTSASRAFTQKKLDDLKSLFVSLASKSHSNDQYVSYPVFQEYFGLSGSLGERIFDMVTQHRKDDKMTFEDLVIAKMTFEDLVIAKVHT”, the protein production was “failed”.
For “MSLDNSRTRPRVGHIQFLNCLPLYWGLARTGTLLDFELTKDTPEKLSEQLVRGDLDIGPVTLVEFLKNADDLVAFPDIAVGCDGPVMSCVIVSQVPLDRLDGARVALGSTSRTSVRLAQLLLSERFGVQPDYYTCPPDLSLMMQEADAAVLIGDAALRANMIDGPRYGLDVHDLGALWKEWTGLPFVFAVWAARRDYAEREPVITRKVHEAFLASRNLSLEEVEKVAEQAARWEAFDEDTLAKYFTTLDFRFGAPQLEAVTEFARRVGPTTGFPADVKVELLKPEGHHHHHH”, the protein production was “not failed”.
For “MSLDRIRLASLHDKVISADAAAAFIQDGMTVGMSGFTRAGEAKAVPQALVERAKQNPLKITLITGASLGNDLDKQLTEAGVLARRLPFQVDNTLRRAINNGEVMFIDQHLSETVEQMRNLQLKRPDVAVIEAIAITEDGGIIPTTSVGNSASFAIFAEKVIVEINTSLSEAFEGLHDIYIPSYRPTRQPIPLTKVDERIGTTAIQIDPAKIVGIVFNDTADSPSTVTLPDDETQGIANHLIAFFEKEVAEGRLPQNLGPLQAGIGSIANAVLTGLKDSNFEDLVMYSEVLQDCTFELIDAGKMKFASGSSITLSAKCGEKVFGNIEAYKDKLVLRPQEISNHPELVRRLGIIGINTALEFDIYGNVNSTHVCGTKMMNGIGGSGDFARNAHLAIFVTKSIAKGGDISSIVPMVSHVDHSEHDVDILVTEQGLADLRGLAPRERARAVIDHCVHPLYKDALNDYFSRASAKGGHTPHLLREALSWHVNFEENGHMLAIEPEAKSA”, the protein production was “failed”.
For “MSLDRPRCCLRGKECSINRFQQVESRWGYSGTSDRIRFSVNKRIFVVGFGLYGSIHGPTDYQVNIQIIHTDSNTVLGQNDTGFSCDGSASTFRVMFKEPVEVLPNVNYTACATLKGPDSHYGTKGMRKVTHESPTTGAKTCFTFCYAAGNNNGTSVEDGQIPEVIFYTEGHHHHHH”, the protein production was “not failed”.
For “MSLDSPLYGRSFADDKMRELFSAQSFISRCVETEVALARAQARLGIIPEDAAAGITAAARTFAPEMERLRDDTEIVGYPILPLVEQLSAHAGEAGKYLHWGATTQDIMDTATVLQIRDGLALISRRIESVRKALAALARNHRDTPMAGRTHLQHALPVTFGYKAAVWLSAFDRHAARLEEISPRVLVVEFSGASGTLASLGTRGLDVQRELARELNLGVPSITWHSARDAVAETVQFLALVSGSLGKLAMDISIMMTTELGEVAEPFVRHRGASSTMPQKQNPVSCELILAGARIVRNHATSMLDAMIHDFERATGPWHLEWSAVPEGFAVASGILYQAEFMLGGLQVFPDRMRENLDHSRGLIVAEAVMMALAPHTGRKEAHDIVYLGCRRAVEDKTGLFEVLRTMPEVAKPLGEEALRDLTDPRNYLGSAGAMVDNVLGGREGHHHHHH”, the protein production was “not failed”.
With “MSLEAVTILLADDEAILLLDFESTLTDAGFLVTAVSSGAKAIEMLKSGAAIDGVVTDIRFCQPPDGWQVARVAREIDPNMPIVYISGHAALEWASNGVPDSIILEKPFTSAQLITAVSQLLNAREGHHHHHH” the protein production was “not failed”.
For “MSLEDHAEELASDLGVDKEEVTRDLENLVNYSVPMDEAKQSLRRKYGDGSSGGDSTPSSKAINEVSTEDSNVTVTAVVLTSGRRSIQYNGEQHVIREGELADETGKISYTAWDGFSGDLQPGQTVQLGNAGVREWDGQPELNLGDSTDPEVVDETLDIDYDVGGRAALQDLAPGDRGITVEVQVLECEQKVIDGRDGETTILSGVLGDESGRLPFTDWDPHDEIEEGASVRLDETFVREFRGAPSVNVSEFSAVTALDRTVGVTEDAPRLSVREAVESGGLFDVELAGNVIEVRDGSGLIERCPECGRVIQNGQCRSHGAVEGEDDLRTKAILDDGTDTVTAVLDDELTARVYGGDLDDAREHARDAMDKEVVAERISDRIVGREYVVRGSLSVDEYGANLTASTFAEADDDPATRAQALLQEADTLEHHHHHH”, the protein production was “not failed”.
With “MSLEEVIEQLREANEPVPVPLELPDEDQLVEIEEQLFINIPFVFKEFLLTVSDVVYGSLEPVTVTDPQSHTYLPEVCATAWDLGVPRELIPICQDGEDYYCVEEDGTVLLWSAEEELVTEESWESVWHWARDVWLESEGHHHHHH” the protein production was “not failed”.
For “MSLEKLKLIGDERLDYLLAENLRIIQSPSVFSFSIDAVLLAKFSYLPIRKGKIIDLCSGNGIIPLLLSTRTKAKIVGVEIQERLADMAKRSVAYNQLEDQIEIIEYDLKKITDLIPKERADIVTCNPPYFATPDTSLKNTNEHFRIARHEVMCTLEDTIRVAASLLKQGGKANFVHRPERLLDIIDIMRKYRLEPKRIQFVHPRSDREANTVLVEGIKDGKPGVKYVPPVIVYDELGEYTPVIKEILYGESEGHHHHHH”, the protein production was “not failed”.
For “MSLEQASVTNDFSENKQGCIQHPWQGKKVGYIGDSITDPNCYGDNIKKYWDFLKEWLGITPFVYGISGRQWDDVPRQAEKLKKEHGGEVDAILVFMGTNDYNSSVPIGEWFTEQEEQVLSAHGEMKKMVTRKKRTPVMTQDTYRGRINIGITQLKKLFPDKQIVLLTPLHRSLANFGDKNVQPDESYQNGCGEYIDAYVQAIKEAGNIWGIPVIDFNAVTGMNPMVEEQLIYFYDAGYDRLHPDTKGQERMARTLMYQLLALPVAFEGHHHHHH”, the protein production was “not failed”.
For “MSLETVRLQRELIEAQRQTYNEMRTYFTVNGVEGVIGAVFDEGVITLRVPSEVLFAPGAVELAPGADRVLATLKDLFIRRREQNINIKGFTDDVQPSANARFKDNWEVSALRSVNVLRYFLGAGIEPARLTATGLGELDPLFPNTSDENRARNRRVEFVLERRVVREGHHHHHH”, the protein production was “not failed”.
For “MSLEWQDLAQLPVSIFKDYVTDAQDAEKPFIWTEVFLREINRSNQEIILHIWPMTKTVILGMLDRELPHLELAKKEIISRGYEPVVRNFGGLAVVADEGILNFSLVIPDVFERKLSISDGYLIMVDFIRSIFSDFYQPIEHFEVETSYCPGKFDLSINGKKFAGLAQRRIKNGIAVSIYLSVCGDQKGRSQMISDFYKIGLGDTGSPIAYPNVDPEIMANLSDLLDCPMTVEDVIDRMLISLKQVGFNDRLLMIRPDLVAEFDRFQAKSMANKGMVSRDEEGHHHHHH”, the protein production was “not failed”.
For “MSLFMSCVGILVLLFIGFLLSENKKAINVRTIVIALITQISFGAFVMYVPLGQGILQMMSDAVNHIINFSNEGLTFVFGDLANYKVGFIFVINVLCVVIFISALISVLYYLKIMQFVINLIGGALSKLFGTSKAESMSATANIFVGPIEAPSMVRPLIKKMTRSELFAVMTGGLASVAGGTMIGYINLGIDPKYILTACFMTAPAGLLFAKLLCPQTEQEKITNEIEIDDETTPKSLLDAITDGSIMGMNQVATVTALLISFVALIALVNSLVGGIGDLISIEGLSLELIIGYILSPLAFLMGVPWSEAVTAASLIGQKIAVNEFVAYINFIEIAETLSPKTQAIVVFSLCGFANIGSLAMVIGGLGAICPNKRHILSEIGPRVLMAAILANLMSGTIAGALLSFS”, the protein production was “failed”.
With “MSLGAFLDKPKTEKHNAHGAGNGLRYGLSSMQGWRVEMEDAHTAVVGIPHGLEDWSFFAVYDGHAGSRVANYCSTHLLEHITTNEDFRAAGKSGSALELSVENVKNGIRTGFLKIDEYMRNFSDLRNGMDRSGSTAVGVMISPKHIYFINCGDSRAVLYRNGQVCFSTQDHKPCNPREKERIQNAGGSVMIQRVNGSLAVSRALGDYDYKCVDGKGPTEQLVSPEPEVYEILRAEEDEFIILACDGIWDVMSNEELCEYVKSRLEVSDDLENVCNWVVDTCLHKGSRDNMSIVLVCFSNEGHHHHHH” the protein production was “not failed”.
In the case of “MSLGFVTAAYIIAALLFIMSLAGLSKHETAKAGCWYGISGMAIALFATIFGPQSYGTIWILIAMAIGGYIGIQKALKVEMTAMPELVAILHSFVGLAAVLVGFNSYGLHNDPLIPSNLDAVARANFIVEQQTLATIHYIEVFLGIFIGAVTFSGSLIAFGKLSGNLFGCKVSSVALNLPNKHKLNLAALIISGLLMMVFLNNPVNIFPVLIMTIIALALGWHLVASIGGADMPVVVSMLNSYSGWAAAAAGFMLSNDLLIVTGALVGSSGAILSYIMCKAMNRSFISVIAGGFGNEMKADSAAEQAQGEHRETTVEDVAEMLKNAHSVIITPGYGMAVAQAQYPVAEITAKLREKGINVRFGIHPVAGRLPGHMNVLLAEAKVPYDVVLEMDEINDDFENTDVVLVIGANDTVNPAALDDPSSPIAGMPVLEVWKAQNVVVFKRSMAVGYAGVQNPLFFKENTQMLFGDAKERVDDILRALN”, the protein production is reported as “failed”.
